Assay: soluble on expression in E. coli; label from the status in PepcDB or PDB records

Sequence	soluble on expression in E. coli
MSLNTIDNKEHIIHYEHILKSTHTVNEVNTVSEVDAMKYSLIKLSAMNSYSDCQQAIEDIEADPENYTTETRAAARIGGHCELLKGAKEKIKALEKKADSFIPSDDSEEVNTVSETSQRTYGYGRVSTDEQTTSQQLTAIREAGHKVSDNRFIVDEGVSGGVCAMERPAFRNLVENKLEKGDTLVIAKLDRLGRDNIDVQQVVQMLTDKGIKLFILDLPVADLSSPEGKLMLQMFATFAEFEKNRISERIRDKLKQLKQEGKALGRPTKNVYDDVQELKAQGISQRTIADKLNVSLSTVRRNWVDTKRSLEVVTESGEGHHHHHH	not soluble
MDYFPVISVDLQSGRRVVSVEYFRGDGPPRIPYSMVGPCCVFLMHHRPSHEVRLRFSDFYNVGEFPYRVGLGDFASNVAPPPAKPFQRLIDLIGHMTLSDFTRFPNLKEAISWPLGEPSLAFFDLSSTRVHRNDDIRRDQIATLAMRSCKITNDLEDSFVGLHRMIATEAILRGIDLCLLPGFDLMYEVAHVQCVRLLQAAKEDISNAVVPNSALIVLMEESLMLRSSLPSMMGRNNWIPVIPPIPDVEMESEEESDDDGFVEVD	not soluble
MAPATQRNRETIAAVLQEYLPSQGSILEIASGTGEHACFFAPLFSPRWWITSDPDPLCRESIMAWRDHQALANFQSPLDLDVNDQVWPVEREILREPVTSIVAINLIHISPWESCLGLLTGAERILPEGGILYLYGPYRQKGVPTAPSNEAFDQSLQSRNPAWGLRQLEDVIGEAGKRNLHNQAIIPMPANNLSVIFQKGLEHHHHHH	soluble
MSTPRPSLTLTLLQAREAAMSFFRPSLNQHGLTEQQWRVIRILRQQGEMESYQLANQACILRPSMTGVLARLERDGIVRRWKAPKDQRRVYVNLTEKGQQCFVSMSGDMEKNYQRIQERFGEEKLAQLLELLNELKKIKP	soluble
MGSDKIHHHHHHMVSCGGDGTLNEVVNGIVNTDLAIAVLPMGTGSDFGKTIGIRNISDFLKAIKSGRTREVDLVAAQFANQSRRYFINILEIGFGAEVMNYVNSHKYLGRGSFKFGAFYMLSKMHPFNLRLIMDGKEYEFPTIEAIFANGRYFGGGMLASPYSEIDDGLLDVHVLKPFSRIRSAMNFRTIYDGSYLNRRICA	not soluble
MAHHHHHHMRKKLVLPLSIGRGFSSWDDGSDGHEWKSRALAEKRLLALTYLGDVNKRVQIHDAIRLRGEVNKQAIRACELPTFFQTKETNEAENLQEIDYHSLLSMIEGEFEVDTLAHIAPSDANFLKTEFLQCDDSAEVKLLGQWSNLRRDTADYNNYASIPDGERNAWSAWYLRNVRPGKTEND	not soluble
MTGDYALCGWRVRIDRPSTFAPPWIGEDRPVDITIRHAAFSPPSPPLLFESPLVGVFAEGAIVLRINPGLGFLIEGGARITVDATAQTGEAEIATFLFGQCLGFLALQRRQPALRAASVVRDGRAVVLAGAAGVGKSTLAAALMAKGWGLLADEVTLIDPRTLLIPPAFGRIKLWKDSATHLGLEAAALPAVRPGWNKGHAPYGGHLAPAPVPLAAIILIEQAYTAKTAGIDKIAPREALAALNDQLHGGTFAGALAARPACFDLLTTLVGGVPVFQLSRPWHGMTLAPLVELLTAEMARLEHHHHHH	not soluble
SESSGGPTSSLAGTSRNTHVEDDDVVFIESVQPPICAPAIPNERNFVFASSKHENPPGTDSTISPSWRDLTSQKGNLCETIVIDDEGDTDTNGGEEKNPTDFIEWGPNGNKSSTKNVDFPIASLSRSKTKTAVGPFNPGRIDVTDAFQNGRFAVHHNPDSWISQSASFPRNQKQQGVDSLSPVASLPKQIFQPSNQQPTKPVKVTCANCKKPLQKGQTAYQRKGSAHLFCSTTCLSSFSHKRTRKTRNVMCKK	soluble
LTAEEIIQYISDAKKSTPIKVYLNGNFEGITYPESFKVFGSEQSKVIFCEADDWKPFYEAYGSQFEDIEIEMDRRNSAIPLKDLTNTN	soluble
MGSVSKANVPKIDVSPLFGDDQAAKMRVAQQIDAASRDTGFFYAVNHGINVQRLSQKTKEFHMSITPEEKWDLAIRAYNKEHQDQVRAGYYLSIPGKKAVESFCYLNPNFTPDHPRIQAKTPTHEVNVWPDETKHPGFQDFAEQYYWDVFGLSSALLKGYALALGKEENFFARHFKPDDTLASVVLIRYPYLDPYPEAAIKTAADGTKLSFEWHEDVSLITVLYQSNVQNLQVETAAGYQDIEADDTGYLINCGSYMAHLTNNYYKAPIHRVKWVNAERQSLPFFVNLGYDSVIDPFDPREPNGKSDREPLSYGDYLQNGLVSLINKNGQT	soluble
MGSDKIHHHHHHMPIKSRAVVIPKRNTIEIRTVQVNEPKAGDVLIKTAFTSISAGTERMLLDGRLPQPQLLFPVVPGYETVGQVVQVGSKAPKELLGQWVYIGGARCFRGVNAAWGGQSEYITAEHERVVPLGSLDPATGVLLALAATALHGIKIGQIRRSDRVLVLGQGIVGQLAARLAKYAGAQHVAVADRVAVRLQASQADQVIDVTRESLDEAIGEAKVDVLIEATGSMGALSGALPLLANHGRVVLLGYYDHINIPYAPVFMREAQILVAREWEFGPDGDLPRVRDLLANGDLKVDGLLTHHVPLDRIQAAYRLAPGRPGLFEGCCHVAAKRYRRSVVLTRQGAMRISLEREMALCPPIQKRNNQVQQHECSPSTAKAAWENHSSPPIW	not soluble
VRNSPDLLDEIRAGITVHARPDLQTPIDGLLLSKVTAESAAPEYSLTEPLLVIMTQGGKRLLLGDRLYEYRAGQCLVVTASVPVTGHYIDISEGAPSLAMGLVLRPAAIAALVLQAPTERWSRGAAGVPAIETGDADVHLLDAAARMLRLLDHPADAPVLAPLIEQEILWRLLTGPHGSTIRQIGMADSDLAHVSRAIHWIRDNYSEPMRIDDLARLSSMSASAFHRHFRAVTAMSPLQYQKRIRLQHARSMLVAHPGDVAGVGHHVGYDSPSQFNREYRRLFGASPGKDAHGLRGNTALSDTGPLP	not soluble
MGHHHHHHSHMNGRADFREPNAEVPRPIPHIGPDYIPTEEERRVFAECNDESFWFRSVPLAATSMLITQGLISKGILSSHPKYGSIPKLILACIMGYFAGKLSYVKTCQEKFKKLENSPLGEALRSGQARRSSPPGHYYQKSKYDSSVSGQSSFVTSPAADNIEMLPHYEPIPFSSSMNESAPTGITDHIVQGRNFS	soluble
MGSDKIHHHHHHMARDLQNHLLFEVATEVTNRVGGIYSVLKSKAPVTVAQYGDNYTLLGPLNKATYESEVEKLDWEDESIFPEELLPIQKTLMSMREKGVNFVYGNWLIEGAPRVILFELDSVRHFLNEWKADLWSLVGIPSPEHDHETNDAILLGYVVVWFLGEVSKLDSSHAIIGHFHEWLAGVALPLCRKKRIDVVTIFTTHATLLGRYLCAAGDVDFYNNLQYFDVDQEAGKRGIYHRYCIERAAAHTADVFTTVSQITALEAEHLLKRKPDGILPNGLNVVKFQAVHEFQNLHALKKDKINDFVRGHFHGCFDFDLDNTVYFFIAGRYEYKNKGADMFIESLARLNYRLKVSGSKKTVVAFLIMPAKTNSFTVEALKSQAIVKSLENTVNEVTASIGKRIFEHTMRYPHNGLESELPTNLDELLKSSEKVLLKKRVLALRRPYGELPPVVTHNMCDDANDPILNQIRHVRLFNDSSDRVKVIFHPEFLNANNPILGLDYDEFVRGCHLGVFPSYYEPWGYTPAECTVMGVPSITTNVSGFGAYMEDLIETDQAKDYGIYIVDRRFKSPDESVEQLADYMEEFVNKTRRQRINQRNRTERLSDLLDWKRMGLEYVKARQLGLRRAYPEQFKQLVGETISDANMNTLAGGKKFKIARPLSVPGSPKVRSNSTVYMTPGDLGTLQDANNADDYFNLSTNGAIDNDDDDNDTSAYYEDN	not soluble
MSLSETASWQPSASIPNLLKRAAIMAEIRRFFADRGVLEVETPCMSQATVTDIHLVPFETRFVGPGHSQGMNLWLMTSPEYHMKRLLVAGCGPVFQLCRSFRNEEMGRYHNPEFTMLEWYRPHYDMYRLMNEVDDLLQQVLDCPAAESLSYQQAFLRYLEIDPLSADKTQLREVAAKLDLSNVADTEEDRDTLLQLLFTFGVEPNIGKEKPTFVYHFPASQASLAQISTEDHRVAERFEVYYKGIELANGFHELTDAREQQQRFEQDNRKRAARGLPQHPIDQNLIEALKVGMPDCSGVALGVDRLVMLALGAETLAEVIAFSVDRAEGHHHHHH	soluble
MGSSHHHHHHSSGRENLYFQGMSVVFGVDIVGGSVHGKIKPKYAVVVLENGNEFEKIVSRSKLFRMVKKEKPDIIAVDNIYEVFKDKKDLIFFLKNAPSKTKLVQVTDRENSLPSLSKRFGLNINIRNPVDEARACAYLASFGMGSEISVFTDKTKITVSRNRSLGKGGWRQKKYGRKIHNAVREVYKEIRDRIVEAGFEFVEEVRKGYGGISRGVILVSAPRDRVPINSFKTRDVQVAVEAVEKEKIEFIPLRRTLRYLIVGIDPGATTAIAALDLRGELVDMKSRKGWSPAEVIEFISSLGKPVVVSTDKSSPPEFVSKIRASFNAVLYTPKEDMSVEKKRILTSKYSTSNDHERDALAAAIDAFNSYKSKLINVEKRLPAGIDSDRIKAEIIRGTPLKEVLSVTREESREEKVQAETVSREEILKRDRVIERLKEENRILSRKIKEMKDEIEKLRARVASISREEHEKIRKDTYVQNLEREIFDLRKKLKEKDEEIEQLKERIALLRKMKMLEFQGWKEVKVLRKFTKEEIERAEREMGISEGDIILIVDSSGGSASLAEMLCEKKVRAIIYGSEMSHLAAETFEKYNIPRISIDEVEIMMGDDIAVVNAEEFERVYAEKLEETKRRKIDFLEKLVEDYRRRRVV	soluble
MGHHHHHHSHMSYKPNLAAHMPAAALNAAGSVHSPSTSMATSSQYRQLLSDYGPPSLGYTQGTGNSQVPQSKYAELLAIIEELGKEIRPTYAGSKSAMERLKRGIIHARGLVRECLAETERNARS	soluble
GPLGSATITQDTPINQIFTDTALAEKMKTVLGKTNVTDTVSQTDLDQVTTLQADRLGIKSIDGVEYLNNLTQINFSNNQLTDITPLKNLTKLVDILMNNNQIADITPLANLTNLTGLTLFNNQITDIDPLKNLTNLNRLELSSNTISDISALSGLTSLQQLSFGNQVTDLKPLANLTTLERLDISSNKVSDISVLAKLTNLESLIATNNQISDITPLGILTNLDELSLNGNQLKDIGTLASLTNLTDLDLANNQISNLAPLSGLTKLTELKLGANQISNISPLAGLTALTNLELNENQLEDISPISNLKNLTYLTLYFNNISDISPVSSLTKLQRLFFYNNKVSDVSSLANLTNINWLSAGHNQISDLTPLANLTRITQLGLNDQAWTNAPVNYKANVSIPNTVKNVTGALIAPATISDGGSYTEPDITWNLPSYTNEVSYTFSQPVTIGKGTTTFSGTVTQPLKA	soluble
SNAMTSLEEITKAIMADSQNKVFTEKNIEPLFAAPKTARINIVGQAPGIKAQESRLYWNDKSGDRLREWMGVDYDTFYHSGYFAVIPMDFYYPGKGKSGDLPPRKGFAQKWHQPILDLLPDIQLTILIGNYAQKYYLHQKSSVKLTDTVAHYKKYLPDYFPLVHPSPRNQIWMSRHPWFEAQVVPDLKKIIQQIIQSS	soluble
MGHHHHHHSHMQGLLRFEDQDSARGDQNIAMFYPTSTQMVYRRGLQAIPLSGDLWIHYINFLKETLDPGDPETNNTIRGTFEHAVLAAGTDFRSDRLWEMYIDWENEQGNLREVTAIYDRILGIPTQLCSHHFQRFKEHVQNNLPRDLLTGEQFIQLRRELASVNGHSGDDGPPGDDLPSGIEDITDPAKLITEIENMRHRIIEIHQEMFNYNEHEVSKRWTFEEGIKRPYFHVKPLEKAQLKKLERILRI	soluble
